Assay results as given in article PMC8699718, “A structurally conserved site in AUP1 binds the E2 enzyme UBE2G2 and is essential for ER-associated degradation” (PLoS Biology, 2021).
Ends that are not written are not given here.

T1: purified UBE2G2 (UniProt P60604 1-165, ^15N-labeled for NMR)
T1 chain: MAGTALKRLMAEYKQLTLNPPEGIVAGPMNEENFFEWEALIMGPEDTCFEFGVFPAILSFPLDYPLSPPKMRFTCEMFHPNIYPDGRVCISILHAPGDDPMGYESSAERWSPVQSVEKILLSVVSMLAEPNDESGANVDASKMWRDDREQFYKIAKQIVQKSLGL

T2: purified UBE2G2 (UniProt P60604 1-165, ^15N-labeled for NMR)
T2 construct: UBE2G2, purified recombinant protein used for ITC, FP, MST and NMR; also called apo-UBE2G2; ^15N-labeled UBE2G2
T2 sequence (looked up): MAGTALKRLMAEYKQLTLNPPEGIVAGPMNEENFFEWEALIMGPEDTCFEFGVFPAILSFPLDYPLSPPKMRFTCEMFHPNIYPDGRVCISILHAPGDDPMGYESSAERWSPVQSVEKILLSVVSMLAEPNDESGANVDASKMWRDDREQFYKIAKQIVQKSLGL

T3: UBE2G2 (Homo sapiens, UniProt P60604)
T3 construct: made in house
T3 sequence (P60604 1-165): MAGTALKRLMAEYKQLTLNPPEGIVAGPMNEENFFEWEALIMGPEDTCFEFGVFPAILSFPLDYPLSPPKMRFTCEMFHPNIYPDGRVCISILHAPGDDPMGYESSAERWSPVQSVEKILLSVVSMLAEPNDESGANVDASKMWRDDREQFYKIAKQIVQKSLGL


Tests used:
purified UBE2G2 [1] = target: T1, purified UBE2G2; test: FP
purified UBE2G2 [2] = target: T1, purified UBE2G2; test: MST
purified UBE2G2 [3] = target: T2, purified UBE2G2; test: ITC; 30 μM G2BR peptide injected into 3 μM UBE2G2 in the cell, PBS pH 7.4, 25°C, one set of sites model; conditions: both partners purified
[4] = system: NHK (Null Hong Kong variant of alpha1-antitrypsin); test: CHX chase: NHK degradation in HT1080 AUP1 KO cells; assay type: cell-based, human; conditions: full-length or deleted AUP1-FLAG re-expressed in HT1080 AUP1 KO cells, CHX 50 μg/mL
Procedure: Fig 1 The G2BR of AUP1 is required for ERAD of NHK. (A) HT1080 or cells in which HRD1 was knocked out by CRISPR/Cas-9 (HRD1 KO) were transfected with plasmid encoding carboxyl-terminally HA-tagged NHK. Cells were treated with CHX for the indicated times to inhibit protein synthesis and NHK-HA degradation monitored by western blot. GFP and HSP60 serve as transfection efficiency and gel loading controls, respectively. (B) HT1080 or cells in which either AUP1 or gp78 was knocked out (AUP1 KO or gp78 KO) were transfected with NHK-HA and their degradation assessed. (C) AUP1 KO cells were transfected with NHK-HA and empty vector or plasmid encoding carboxyl-terminally FLAG-tagged AUP1 and NHK degradation assessed. (D) Indicated cells were transfected with plasmid encoding carboxyl-terminally MYC-tagged INSIG-1 and assessed for INSIG-1 degradation. (E) Schematic representation of AUP1 in the ER membrane and deletion mutants used in subsequent experiments. Amino acid residues are numbered spanning each domain. (F) AUP1 KO cells were transfected with NHK-HA and plasmids encoding the indicated FLAG-tagged AUP1 WT or deletion mutants and assessed for NHK degradation. (G) HEK293 (Parental) or HEK293 AUP1 KO cells were assessed for degradation of NHK-HA. (H) HEK293 AUP1 KO cells were assessed for NHK-HA degradation as in (F). Markers represent apparent molecular weight in kDa. The data underlying this figure can be found in S1 Data. aa, amino acid; AUP1, ancient ubiquitous protein 1; CHX, cycloheximide; ER, endoplasmic reticulum; ERAD, endoplasmic reticulum–associated degradation; G2BR, UBE2G2 Binding Region; KO, knockout; NHK, Null Hong Kong; WT, wild type.
(§1) Fig 6 Disruption of UBE2G2:G2BR^AUP1 interaction abrogates AUP1 function in cells. (A) GST or indicated GST-AUP1 fusions (aa 292 to 410, expression shown in Coomassie-stained gel) were immobilized on glutathione beads and binding to ^35S-UBE2G2 was assessed as in Fig 3A. Mutations include 2A (R382A/Q383A), 2E (R382E/Q383E), and 5E (R382E/Q383E/K390E/R398E/R400E). (B) AUP1 KO cells were transfected with NHK-HA and forms of full-length AUP1-FLAG with the indicated point mutations from (A) and NHK degradation assessed by CHX chase. (C) Binding assay performed as in (A) with AUP1 mutants predicted to disrupt hydrophobic interactions with UBE2G2. (D) Cellular assay performed as in (B) with AUP1-FLAG mutants that disrupt interactions with UBE2G2 in vitro in (C). The data underlying this figure can be found in S1 Data. aa, amino acid; AUP1, ancient ubiquitous protein 1; CHX, cycloheximide; G2BR, UBE2G2 Binding Region; KO, knockout; WT, wild type.
Fig 8 Recruitment of UBE2G2 to the ER membrane and activation by G2BR^AUP1 is required for ERAD. (A) HT1080 or AUP1 KO cells were transfected with NHK-HA and either empty vector or MYC-UBE2G2 and NHK turnover assessed by CHX chase. (B) AUP1 KO cells were transfected with NHK-HA and GFP fusions of either a scrambled G2BR sequence (SCR) or G2BR^AUP1 and NHK turnover and levels of endogenous UBE2G2 assessed. Luciferase and β-actin served as transfection efficiency and gel loading controls, respectively. (C) AUP1 KO cells were transfected with NHK-HA, MYC-UBE2G2, and either GFP-SCR or GFP-G2BR^AUP1 and NHK turnover assessed. (D) Membrane fractionation was performed on HT1080 or AUP1 KO cells transfected with either empty vector or AUP1-FLAG and localization of UBE2G2 assessed by western blotting. Localization of β-actin (cytosol) and Calnexin (ER membrane) were used as controls for cytosolic (C) and membrane (M) fractions, respectively. (E) Membrane fractionation of AUP1 KO cells transfected with either MYC-UBE2G2 or TM-UBE2G2. (F) HT1080 cells were transfected with TM-UBE2G2 and its localization assessed by confocal microscopy. Images shown are from an optical section after deconvolution. HA-tagged UBE2J2, an ER-localized E2, serves as an ER marker. […]

UBE2G2 = target: T3, UBE2G2; test: GST pulldown of in vitro translated 35S-UBE2G2; assay type: binding; conditions: GST-AUP1 aa 292 to 410 on glutathione beads, ~3 pmol GST fusion, ~0.2 pmol E2, overnight 4°C, pH 7.4
Procedure: Fig 3 The AUP1–UBE2G2 interaction is required for ERAD. (A) Equimolar amounts of GST-AUP1 (aa 292 to 410) or GST were immobilized on glutathione beads and binding to the indicated in vitro translated ^35S-labeled E2s was assessed. Left panel is 5% of input used for binding. E2s are referred to by their unique alpha-numeric designation (e.g., UBE2G1 and UBE2J1). (B) HT1080 or UBE2G2 KO cells were transfected with INSIG-1-MYC and degradation assessed by CHX chase. […] (D) Cells were transfected with NHK-MYC and HA-ubiquitin and ubiquitination of NHK assessed following proteasome inhibition and IP (right panel). Left panel is 10% of total cell lysate used for IP, indicating no discernable change in total ubiquitination. (E) Levels of endogenous HRD1 were monitored by CHX chase in the indicated cell types. (F) Ubiquitination of endogenous HRD1 was assessed following IP with HRD1 antiserum. Arrow in upper panel indicates migration of unmodified HRD1. Control immunoprecipitates using rabbit serum are shown for comparison. The data underlying this figure can be found in S1 Data. aa, amino acid; AUP1, ancient ubiquitous protein 1; CHX, cycloheximide; ERAD, endoplasmic reticulum–associated degradation; IP, immunoprecipitation; KO, knockout; WT, wild type.
as §1
In vitro translated ^35S methionine-labeled E2s were generated using the E. coli T7-S30 Extract System (Promega) and excess ^35S methionine was removed by desalting twice with Zeba Spin Desalting Columns (Thermo Scientific). GST fusion proteins were quantified by Coomassie blue staining. Moreover, 0.1 μg of GST fusion protein (approximately 3 pmol) was prebound to GS 4B (GE Healthcare) and then incubated with approximately 10^5 cpm of ^35S methionine-labeled E2 (approximately 0.2 pmol) in 200 μl Binding Buffer (25 mM Tris-HCl, pH 7.4, 50 mM NaCl, 5 mM DTT, 0.5% IGEPAL CA-630) overnight at 4°C. Beads were extensively washed in Binding Buffer, resolved on Bis/Tris polyacrylamide gels under reducing conditions, dried and visualized on a Typhoon FLA 7000 (GE Healthcare). Binding was quantified using ImageQuant Software.

| Molecule | Kd (purified UBE2G2 [1]) [nM] | Kd (purified UBE2G2 [2]) [nM] | Kd (purified UBE2G2 [3]) [nM] | restoration of NHK degradation [4] | binding to UBE2G2 (UBE2G2) |
| --- | --- | --- | --- | --- | --- |
| WSADERQRMLVQRKDELLQQARKRFLNK (also: FITC label, position not given here) [FITC-labeled G2BR^gp78 peptide] | 15.1 | 10 |  |  |  |
| SSWARQESLQERKQALYEYARRRFTER (also: FITC label, position not given here) [FITC-labeled G2BR^AUP1 peptide] | 7.1 | 4.3 |  |  |  |
| WSADERQRMLVQRKDELLQQARKRFLNK (N-terminal Trp residue added for peptide quantification; Natural stretch with one extra N-terminal Trp added for quantification; also called gp78 G2BR; source: synthetic peptide (GenScript)) [G2BR^gp78 peptide (aa 574 to 600, with an added N-terminal Trp)] |  |  | 2.7 |  |  |
| SSWARQESLQERKQALYEYARRRFTER (also called AUP1 G2BR; source: synthetic peptide (GenScript)) [G2BR^AUP1 peptide (aa 378 to 404)] |  |  | 3.1 |  |  |
| 5E: AUP1 point mutant; GST-AUP1 aa 292 to 410 in vitro, full-length AUP1-FLAG in cells (protein, UniProt Q9Y679 1-410, looked up, variant R382E Q383E K390E R398E R400E, GST or FLAG tag, AUP1 point mutant; GST-AUP1 aa 292 to 410 in vitro, full-length AUP1-FLAG in cells) Lipid droplet-regulating VLDL …: MELPSGPGPERLFDSHRLPGDCFLLLVLLLYAPVGFCLLVLRLFLGIHVFLVSCALPDSVLRRFVVRTMCAVLGLVARQEDSGLRDHSVRVLISNHVTPFDHNIVNLLTTCSTPLLNSPPSFVCWSRGFMEMNGRGELVESLKRFCASTRLPPTPLLLFPEEEATNGREGLLRFSSWPFSIQDVVQPLTLQVQRPLVSVTVSDASWVSELLWSLFVPFTVYQVRWLRPVHRQLGEANEEFALRVQQLVAKELGQTGTRLTPADKAEHMKRQRHPRLRPQSAQSSFPPSPGPSPDVQLATLAQRVKEVLPHVPLGVIQRDLAKTGCVDLTITNLLEGAVAFMPEDITKGTQSLPTASASKFPSSGPVTPQPTALTFAKSSWAEEESLQEREQALYEYAEREFTERRAQEAD |  |  |  | failed to restore NHK degradation | loss of detectable UBE2G2 binding |
| L386D/Y394D: AUP1 point mutant; GST-AUP1 aa 292 to 410 in vitro, full-length AUP1-FLAG in cells (protein, left off: GST, end not stated, kept, AUP1 point mutant; GST-AUP1 aa 292 to 410 in vitro, full-length AUP1-FLAG in cells) SPDVQLATLAQRVKEVLPHVPLGVIQRDLAKTGCVDLTITNLLEGAVAFMPEDITKGTQSLPTASASKFPSSGPVTPQPTALTFAKSSWARQESDQERKQALDEYARRRFTERRAQEAD |  |  |  | failed to restore NHK degradation | eliminated detectable binding to UBE2G2 |
